Assay results taken from patent US11965039B2, “Compstatin analogues and their medical uses” (priority 2018, dated 2024).
Where two headings read alike, the source gives them in different places. Starred links: 1 amine or outer side, 2 acyl side, 3 side chain; linkers in the order of their positions; H or OH if unused. Positions of bridges follow the written chain, without caps; N, C: chain ends. Non-standard residues stand in square brackets, D forms with d. Residues, ends and D or L forms follow the SMILES beside them. Groups on a side chain read outwards from the residue. *: point of attachment. Trp(1-Me) = Cn1cc(C[C@H](N)C(=O)O)c2ccccc21; C18 diacid = O=C(O)CCCCCCCCCCCCCCCCC(=O)*; γGlu = O=C(O)[C@H](CCC(=O)[*:2])N[*:1]; β3hI = CC[C@H](C)[C@H](N)CC(=O)O; Nle = CCCC[C@H](N)C(=O)O; Nva = CCC[C@H](N)C(=O)O; Sar = CNCC(=O)O

Key:
[1] = test system: classical complement pathway; test: In vitro haemolysis assay (inhibition of classical complement pathway); format: cell-based, human; conditions: human serum, sensitized sheep red blood cells; Table 3, given as upper bounds; read-out: IC50, inhibition of hemolysis
Outline: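 Compound dilutions preincubated 15 min at room temperature with diluted human serum (titrated per batch for 70-90% maximal haemolysis), then antibody-sensitized sheep RBC (10^7/well) added for 30 min at 37 °C in Tris/casein buffer, pH 7.4. Stopped with EDTA; haemolysis read at 405 nm; IC50 by 4PL fit.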

[2] = Pharmacokinetic half-life in non-human primates (serum, LC-MS/MS); format: in vivo, Cynomolgus monkeys (Macaca fascicularis); conditions: male, cynomolgus monkey, sc, NHP, single subcutaneous dose 1840 nmol/kg, * = approximate determination
Experimental: Healthy male Cynomolgus monkeys (Macaca fascicularis) received single subcutaneous administrations of each test substance. Compounds were formulated in 20 mM phosphate adjusted with NaOH to pH 7.5 and mannitol for isotonicity and dosed at 1840 nmol/kg. Blood was collected from a femoral vein from each animal at the following times: Pre-dose, 1, 2, 4, 8, 24, 48, 72, 96 and 120 h (10 sampling times). Blood was collected into serum separation tubes and allowed to clot at room temperature. The tubes were centrifuged and resulting serum was aliquoted and snap-frozen over dry-ice and stored at nominally −80° C. until analysis. All NHP studies were performed in accordance with animal welfare laws and regulations, including approval of the study by a local ethical review process.
In order to assess pharmacokinetic half-life (t ½), serum samples isolated from non-human primates at specific time points after dosing were analysed for total drug compound after sample preparation by solid phase extraction (SPE) and liquid chromatography mass spectrometry (LC-MS/MS) using analogue internal standard. Single measurement of serum concentrations were used for calculation of the pharmacokinetic parameters using the non-compartmental approach in Phoenix WinNonlin 6.3. Plasma terminal elimination half-life (t½) was determined as In(2)/λz where λz is the magnitude of the slope of the log linear regression of the log concentration versus time profile during the terminal phase.

[3] = target: T1, Human C3 (Complement tech cat #A113c) (human, UniProt P01024 23-1663); test: cell-based or functional assay
T1 sequence (P01024 23-1663 limits assumed): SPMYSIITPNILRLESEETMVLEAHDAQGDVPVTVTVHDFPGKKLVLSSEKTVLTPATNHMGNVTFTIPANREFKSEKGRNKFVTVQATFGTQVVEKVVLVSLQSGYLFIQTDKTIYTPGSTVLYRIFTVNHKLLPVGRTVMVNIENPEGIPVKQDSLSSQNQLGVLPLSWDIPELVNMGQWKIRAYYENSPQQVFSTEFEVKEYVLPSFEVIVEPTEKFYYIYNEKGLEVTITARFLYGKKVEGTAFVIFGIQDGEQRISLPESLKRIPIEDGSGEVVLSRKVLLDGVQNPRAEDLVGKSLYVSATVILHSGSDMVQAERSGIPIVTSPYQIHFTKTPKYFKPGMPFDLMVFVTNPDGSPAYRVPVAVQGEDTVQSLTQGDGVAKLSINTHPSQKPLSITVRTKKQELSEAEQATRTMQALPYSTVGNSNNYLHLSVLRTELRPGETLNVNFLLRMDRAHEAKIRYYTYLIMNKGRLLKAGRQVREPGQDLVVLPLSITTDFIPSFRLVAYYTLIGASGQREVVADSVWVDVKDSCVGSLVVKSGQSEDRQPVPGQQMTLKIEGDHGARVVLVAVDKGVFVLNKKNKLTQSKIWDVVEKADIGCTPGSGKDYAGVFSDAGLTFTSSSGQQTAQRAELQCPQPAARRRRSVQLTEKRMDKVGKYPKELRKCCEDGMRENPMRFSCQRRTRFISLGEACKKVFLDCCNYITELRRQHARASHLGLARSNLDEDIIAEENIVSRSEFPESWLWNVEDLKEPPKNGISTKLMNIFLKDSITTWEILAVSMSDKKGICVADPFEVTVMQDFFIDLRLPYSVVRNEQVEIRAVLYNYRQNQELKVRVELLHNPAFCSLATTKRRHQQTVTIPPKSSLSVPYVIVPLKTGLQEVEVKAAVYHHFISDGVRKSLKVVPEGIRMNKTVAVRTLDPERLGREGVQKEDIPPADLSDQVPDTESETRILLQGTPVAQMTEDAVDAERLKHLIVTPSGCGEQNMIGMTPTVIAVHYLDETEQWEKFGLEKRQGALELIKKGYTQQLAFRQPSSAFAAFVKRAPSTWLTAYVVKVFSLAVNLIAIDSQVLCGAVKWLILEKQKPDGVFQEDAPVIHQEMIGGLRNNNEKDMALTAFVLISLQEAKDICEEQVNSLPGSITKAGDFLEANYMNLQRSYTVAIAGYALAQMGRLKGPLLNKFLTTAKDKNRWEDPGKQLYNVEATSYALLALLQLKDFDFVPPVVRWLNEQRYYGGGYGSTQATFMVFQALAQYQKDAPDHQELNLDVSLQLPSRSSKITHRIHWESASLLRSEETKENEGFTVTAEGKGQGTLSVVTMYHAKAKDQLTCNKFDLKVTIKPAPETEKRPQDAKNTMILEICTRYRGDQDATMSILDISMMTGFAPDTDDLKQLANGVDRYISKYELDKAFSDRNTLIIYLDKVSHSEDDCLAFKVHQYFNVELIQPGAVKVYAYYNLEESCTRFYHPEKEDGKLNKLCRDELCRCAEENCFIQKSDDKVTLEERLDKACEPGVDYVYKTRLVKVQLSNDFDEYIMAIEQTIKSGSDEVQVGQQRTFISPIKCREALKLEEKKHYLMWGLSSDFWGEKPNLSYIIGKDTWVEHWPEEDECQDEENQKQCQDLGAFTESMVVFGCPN

[4] = target: T1, Human C3 (Complement tech cat #A113c); test: SPR (Biacore T200), human C3 immobilised, peptide injected, 1:1 fit
Experimental: Surface plasmon resonance (SPR) was used to characterize peptides with respect to their binding affinity (Kd) for C3. Human C3 (Complement tech cat #A113c) was immobilised on individual flow cells of CM5 sensor chips (GE Healthcare) using standard amine coupling to a density of approximately 3000 resonance units (RU) in a buffer consisting of 10 mM phosphate pH 7.4, 150 mM NaCl, 0.05% Tween20.
For interaction experiments a multi-cycle experiment approach was used and performed using a BiacoreT200™ instrument (GE Healthcare) at 25° C. Peptides were injected in increasing concentration series (6-8 different concentrations) for 60-120 sat a flow rate of 30 µL/min in a buffer consisting of 10 mM Tris buffer at pH 7.4, with 150 mM NaCl and 0.05% Tween20. This was followed by a dissociation period for up to 10 min. The C3 surface was regenerated between runs by a 45 s injection of 3 M MgCl_2.

[5] = target: T1, Human C3 (Complement tech cat #A113c); test: as above; remark: listed apart in the source
Outline: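 Human C3 amine-coupled on CM5 chips to about 3000 RU. Multi-cycle runs on Biacore T200 at 25° C: peptides at 6-8 rising concentrations, 60-120 s at 30 µL/min in 10 mM Tris pH 7.4, 150 mM NaCl, 0.05% Tween20, dissociation up to 10 min; 3 M MgCl2 regeneration. Kd derived.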

[6] = target: T1, Human C3 (Complement tech cat #A113c); test: cell-based or functional assay; remark: listed apart in the source
[7] = target: T1, Human C3 (Complement tech cat #A113c); test: cell-based or functional assay; remark: listed apart in the source

half-life [2] [h] | Kd [4] [nM] | Kd [5] [nM] | Molecule | IC50 [1] [nM] | CP hemolysis IC50 [3] [nM] | inhibition of hemolysis IC50 [6] [nM] | IC50, CP hemolysis [7] [nM]
~93.9 | – | – | CC[C@H](C)[C@@H]1NC(=O)[C@@H](NC(=O)[C@H](Cc2ccc(O)cc2)NC(=O)[C@H](C)NC(=O)[C@H](CO)NC(C)=O)CSSC[C@@H](C(=O)N(C)CC(=O)N[C@@H](CCC(=O)O)C(=O)N[C@@H](CCCCNC(=O)CC[C@H](NC(=O)CNC(=O)CC[C@H](NC(=O)CCCCCCCCCCCCCCCCC(=O)O)C(=O)O)C(=O)O)C(N)=O)NC(=O)[C@H](CCCNC(=N)N)NC(=O)[C@H](Cc2c[nH]cn2)NC(=O)[C@H](CCC(=O)O)NC(=O)CNC(=O)[C@H](Cc2c[nH]c3ccccc23)NC(=O)[C@H](CC(=O)O)NC(=O)[C@H](CCC(N)=O)NC(=O)[C@H](Cc2cn(C)c3ccccc23)NC1=O [Compound 106] (Ac-SAYCI[Trp(1-Me)]QDWGEHRC[Sar]EK([γGlu-Gly-γGlu-C18 diacid])-NH2; disulfide 4-14) | < 250 | – | – | –
– | 14 | 14 | Ac-ICIWQDWGEHRCTGAES-NH2 (disulfide 2-12; SMILES CC[C@H](C)[C@H](NC(C)=O)C(=O)N[C@H]1CSSC[C@@H](C(=O)N[C@H](C(=O)NCC(=O)N[C@@H](C)C(=O)N[C@@H](CCC(=O)O)C(=O)N[C@@H](CO)C(N)=O)[C@@H](C)O)NC(=O)[C@H](CCCNC(=N)N)NC(=O)[C@H](Cc2c[nH]cn2)NC(=O)[C@H](CCC(=O)O)NC(=O)CNC(=O)[C@H](Cc2c[nH]c3ccccc23)NC(=O)[C@H](CC(=O)O)NC(=O)[C@H](CCC(N)=O)NC(=O)[C@H](Cc2c[nH]c3ccccc23)NC(=O)[C@H]([C@@H](C)CC)NC1=O) [Compound 15] | – | 47 | < 100 | –
– | 230 | – | Ac-ICVWQDWGEHRCTGAES-NH2 (disulfide 2-12; SMILES CC[C@H](C)[C@H](NC(C)=O)C(=O)N[C@H]1CSSC[C@@H](C(=O)N[C@H](C(=O)NCC(=O)N[C@@H](C)C(=O)N[C@@H](CCC(=O)O)C(=O)N[C@@H](CO)C(N)=O)[C@@H](C)O)NC(=O)[C@H](CCCNC(=N)N)NC(=O)[C@H](Cc2c[nH]cn2)NC(=O)[C@H](CCC(=O)O)NC(=O)CNC(=O)[C@H](Cc2c[nH]c3ccccc23)NC(=O)[C@H](CC(=O)O)NC(=O)[C@H](CCC(N)=O)NC(=O)[C@H](Cc2c[nH]c3ccccc23)NC(=O)[C@H](C(C)C)NC1=O) [Compound D] | – | 210 | – | –
– | – | – | Ac-IC[β3hI]WQDWGEHRCT-NH2 (disulfide 2-12) [Ac-IC(1)XWQDWGEHRC(1)T-NH2 with Beta-Homo-Isoleucine at position 3] | – | – | – | > 10000
– | – | – | Ac-IC[Nle]WQDWGEHRCT-NH2 (disulfide 2-12; SMILES CCCC[C@@H]1NC(=O)[C@@H](NC(=O)[C@@H](NC(C)=O)[C@@H](C)CC)CSSC[C@@H](C(=O)N[C@H](C(N)=O)[C@@H](C)O)NC(=O)[C@H](CCCNC(=N)N)NC(=O)[C@H](Cc2c[nH]cn2)NC(=O)[C@H](CCC(=O)O)NC(=O)CNC(=O)[C@H](Cc2c[nH]c3ccccc23)NC(=O)[C@H](CC(=O)O)NC(=O)[C@H](CCC(N)=O)NC(=O)[C@H](Cc2c[nH]c3ccccc23)NC1=O) [Ac-IC(1)XWQDWGEHRC(1)T-NH2 with Norleucine at position 3] | – | – | – | 480
– | 16 | 16 | Ac-ICIWQDWGEHRCT-NH2 (disulfide 2-12; SMILES CC[C@H](C)[C@H](NC(C)=O)C(=O)N[C@H]1CSSC[C@@H](C(=O)N[C@H](C(N)=O)[C@@H](C)O)NC(=O)[C@H](CCCNC(=N)N)NC(=O)[C@H](Cc2c[nH]cn2)NC(=O)[C@H](CCC(=O)O)NC(=O)CNC(=O)[C@H](Cc2c[nH]c3ccccc23)NC(=O)[C@H](CC(=O)O)NC(=O)[C@H](CCC(N)=O)NC(=O)[C@H](Cc2c[nH]c3ccccc23)NC(=O)[C@H]([C@@H](C)CC)NC1=O) [Compound 2] | – | 94 | < 100 | < 100
– | 130 | – | Ac-ICVWQDWGEHRCT-NH2 (disulfide 2-12; SMILES CC[C@H](C)[C@H](NC(C)=O)C(=O)N[C@H]1CSSC[C@@H](C(=O)N[C@H](C(N)=O)[C@@H](C)O)NC(=O)[C@H](CCCNC(=N)N)NC(=O)[C@H](Cc2c[nH]cn2)NC(=O)[C@H](CCC(=O)O)NC(=O)CNC(=O)[C@H](Cc2c[nH]c3ccccc23)NC(=O)[C@H](CC(=O)O)NC(=O)[C@H](CCC(N)=O)NC(=O)[C@H](Cc2c[nH]c3ccccc23)NC(=O)[C@H](C(C)C)NC1=O) [Compound A] | – | 350 | – | 350
– | 16 | 16 | Ac-ICIWQDWGEHRCS-NH2 (disulfide 2-12; SMILES CC[C@H](C)[C@H](NC(C)=O)C(=O)N[C@H]1CSSC[C@@H](C(=O)N[C@@H](CO)C(N)=O)NC(=O)[C@H](CCCNC(=N)N)NC(=O)[C@H](Cc2c[nH]cn2)NC(=O)[C@H](CCC(=O)O)NC(=O)CNC(=O)[C@H](Cc2c[nH]c3ccccc23)NC(=O)[C@H](CC(=O)O)NC(=O)[C@H](CCC(N)=O)NC(=O)[C@H](Cc2c[nH]c3ccccc23)NC(=O)[C@H]([C@@H](C)CC)NC1=O) [Compound 21] | – | 77 | < 100 | –
– | 160 | – | Ac-ICVWQDWGEHRCS-NH2 (disulfide 2-12; SMILES CC[C@H](C)[C@H](NC(C)=O)C(=O)N[C@H]1CSSC[C@@H](C(=O)N[C@@H](CO)C(N)=O)NC(=O)[C@H](CCCNC(=N)N)NC(=O)[C@H](Cc2c[nH]cn2)NC(=O)[C@H](CCC(=O)O)NC(=O)CNC(=O)[C@H](Cc2c[nH]c3ccccc23)NC(=O)[C@H](CC(=O)O)NC(=O)[C@H](CCC(N)=O)NC(=O)[C@H](Cc2c[nH]c3ccccc23)NC(=O)[C@H](C(C)C)NC1=O) [Compound G] | – | 180 | – | –
– | – | – | Ac-IC[Nva]WQDWGEHRCT-NH2 (disulfide 2-12; SMILES CCC[C@@H]1NC(=O)[C@@H](NC(=O)[C@@H](NC(C)=O)[C@@H](C)CC)CSSC[C@@H](C(=O)N[C@H](C(N)=O)[C@@H](C)O)NC(=O)[C@H](CCCNC(=N)N)NC(=O)[C@H](Cc2c[nH]cn2)NC(=O)[C@H](CCC(=O)O)NC(=O)CNC(=O)[C@H](Cc2c[nH]c3ccccc23)NC(=O)[C@H](CC(=O)O)NC(=O)[C@H](CCC(N)=O)NC(=O)[C@H](Cc2c[nH]c3ccccc23)NC1=O) [Ac-IC(1)XWQDWGEHRC(1)T-NH2 with Norvaline at position 3] | – | – | – | > 1000
